This note sets out measurements from US20210214434A1.

In test [1] the target is Fc receptors on the surface of the effector cells. Put plainly: cell-based or functional assay.
Test [2] has as its target human CD32aH receptor on transfected HEK cells (HEK-CD32) (human) (UniProt P12318). As to the kind of experiment: flow cytometry competition on HEK-CD32 cells, displacement of Rituxan-A488 (30 µg/ml).
The target of test [3] is human CD32aR receptor on transfected HEK cells (HEK-CD32) (human) (UniProt P12318). The test is described as above.
Sequence of human CD32aR receptor on transfected HEK cells (HEK-CD32) (human) (P12318 34-317 H167R limits assumed): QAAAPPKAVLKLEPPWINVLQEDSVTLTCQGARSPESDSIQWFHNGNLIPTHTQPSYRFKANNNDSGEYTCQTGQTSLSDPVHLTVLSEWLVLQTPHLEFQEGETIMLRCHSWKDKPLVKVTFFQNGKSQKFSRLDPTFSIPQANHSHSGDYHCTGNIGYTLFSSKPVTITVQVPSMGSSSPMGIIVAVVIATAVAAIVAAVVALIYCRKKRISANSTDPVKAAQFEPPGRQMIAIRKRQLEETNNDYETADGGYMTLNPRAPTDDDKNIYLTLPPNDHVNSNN
Test [4] deals with HisTag hCD32aH receptor (PX therapeutics) (human) (UniProt P12318). As to the kind of experiment: BLI (Octet), HisTag hCD32aH on anti-Penta-HIS biosensors, 1/1 model; SD 114.3.
Sequence of HisTag hCD32aH receptor (PX therapeutics) (human) (P12318 34-217 limits assumed): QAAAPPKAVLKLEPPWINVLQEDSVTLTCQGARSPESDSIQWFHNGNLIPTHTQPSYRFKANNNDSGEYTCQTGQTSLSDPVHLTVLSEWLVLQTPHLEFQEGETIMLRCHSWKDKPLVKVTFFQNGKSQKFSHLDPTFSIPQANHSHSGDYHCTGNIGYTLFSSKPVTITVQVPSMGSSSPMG
Test [5] deals with human CD64 receptor expressed by Jurkat cells (Jurkat-CD64) (human) (UniProt P12314). Put plainly: cell-based or functional assay.
Sequence of human CD64 receptor expressed by Jurkat cells (Jurkat-CD64) (human) (P12314 16-374): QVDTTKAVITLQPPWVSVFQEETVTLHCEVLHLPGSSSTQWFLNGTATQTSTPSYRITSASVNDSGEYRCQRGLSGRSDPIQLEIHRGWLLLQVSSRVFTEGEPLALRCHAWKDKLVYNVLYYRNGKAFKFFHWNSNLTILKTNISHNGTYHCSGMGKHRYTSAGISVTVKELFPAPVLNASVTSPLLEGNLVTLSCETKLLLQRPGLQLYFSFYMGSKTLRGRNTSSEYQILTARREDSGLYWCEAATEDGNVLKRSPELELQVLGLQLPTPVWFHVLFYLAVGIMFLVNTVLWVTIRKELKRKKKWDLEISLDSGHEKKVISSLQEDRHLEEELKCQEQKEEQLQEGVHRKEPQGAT
For a further test, the target named is CD32b (UniProt P31994). Put plainly: competition assay, protocol and competitor for CD32b not described.
Sequence of CD32b (P31994 43-310 limits assumed): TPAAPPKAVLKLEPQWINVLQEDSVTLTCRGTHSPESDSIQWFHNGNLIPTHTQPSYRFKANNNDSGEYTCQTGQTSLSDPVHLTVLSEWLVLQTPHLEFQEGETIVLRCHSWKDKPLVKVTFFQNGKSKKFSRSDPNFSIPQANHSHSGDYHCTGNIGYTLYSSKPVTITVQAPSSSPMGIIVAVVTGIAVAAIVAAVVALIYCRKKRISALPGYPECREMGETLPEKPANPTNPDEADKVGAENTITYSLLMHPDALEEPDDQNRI
In test [6] the target is HisTag hCD16aV receptor (R&D System) (human) (UniProt P08637). As to the kind of experiment: BLI (Octet), HisTag hCD16aV on anti-Penta-HIS biosensors, 1/1 model; SD 4.0.
Sequence of HisTag hCD16aV receptor (R&D System) (human) (P08637 17-208 F176V limits assumed): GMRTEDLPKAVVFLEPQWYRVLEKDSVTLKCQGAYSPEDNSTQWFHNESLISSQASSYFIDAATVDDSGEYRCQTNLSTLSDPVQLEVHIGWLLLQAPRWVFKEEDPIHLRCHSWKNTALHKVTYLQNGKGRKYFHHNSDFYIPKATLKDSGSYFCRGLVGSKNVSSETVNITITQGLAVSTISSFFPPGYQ
Test [7] has the same target. Put plainly: BLI (Octet), HisTag hCD16aV on anti-Penta-HIS biosensors, 1/1 model; SD 103.9.
In test [8] the target is biotinylated human FcRn receptor (hFcRn), immobilized on Streptavidin Biosensors (human) (UniProt P55899). As to the kind of experiment: BLI (Octet), biotinylated hFcRn on streptavidin biosensors, pH 6, 1/1 model; SD 1.94.
Sequence of biotinylated human FcRn receptor (hFcRn), immobilized on Streptavidin Biosensors (human) (P55899 24-297 limits assumed, chain 1 of 2): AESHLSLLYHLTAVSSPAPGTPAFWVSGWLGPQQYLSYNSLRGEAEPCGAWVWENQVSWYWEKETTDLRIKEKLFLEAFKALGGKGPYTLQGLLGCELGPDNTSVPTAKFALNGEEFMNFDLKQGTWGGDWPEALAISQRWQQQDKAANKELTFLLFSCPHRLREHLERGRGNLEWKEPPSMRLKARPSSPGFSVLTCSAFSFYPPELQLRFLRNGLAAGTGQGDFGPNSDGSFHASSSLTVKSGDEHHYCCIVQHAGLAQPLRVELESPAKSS
Sequence of biotinylated human FcRn receptor (hFcRn), immobilized on Streptavidin Biosensors (human) (P61769 21-119 limits assumed, chain 2 of 2, further chain): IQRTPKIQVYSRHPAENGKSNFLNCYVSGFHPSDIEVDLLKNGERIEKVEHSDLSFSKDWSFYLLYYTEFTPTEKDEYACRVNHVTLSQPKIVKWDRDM
In test [9] the target is human FcRn receptor expressed by Jurkat cells (Jurkat-FcRn) (human) (UniProt P55899). Put plainly: flow cytometry competition on Jurkat-FcRn cells, displacement of Rituxan-A488 (25 µg/ml), pH 6.
Sequence of human FcRn receptor expressed by Jurkat cells (Jurkat-FcRn) (human) (P55899 24-365, chain 1 of 2): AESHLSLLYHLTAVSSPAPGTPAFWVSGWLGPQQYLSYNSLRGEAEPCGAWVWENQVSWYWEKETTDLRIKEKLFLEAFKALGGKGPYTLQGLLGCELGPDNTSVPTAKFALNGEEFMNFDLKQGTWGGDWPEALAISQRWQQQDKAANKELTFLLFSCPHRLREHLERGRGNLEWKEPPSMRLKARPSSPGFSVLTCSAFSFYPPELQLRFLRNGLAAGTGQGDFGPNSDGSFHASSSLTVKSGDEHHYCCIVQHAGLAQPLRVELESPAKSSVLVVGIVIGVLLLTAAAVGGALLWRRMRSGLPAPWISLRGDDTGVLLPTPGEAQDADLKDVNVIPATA
Sequence of human FcRn receptor expressed by Jurkat cells (Jurkat-FcRn) (human) (P61769 21-119, chain 2 of 2, further chain): as the sequence (P61769 21-119 limits assumed, chain 2 of 2, further chain) above
Test [10] addresses human CD64 receptor expressed by Jurkat cells (Jurkat-CD64) (human) (UniProt P12314). Put plainly: flow cytometry competition on Jurkat-CD64 cells, displacement of Rituxan-A488 (25 µg/ml).
For test [11], the target named is human CD16aH receptor on transfected Jurkat cells (Jurkat-CD16aH) (human) (UniProt P08637). Put plainly: flow cytometry competition on Jurkat-CD16aH cells, displacement of mAb 3G8-PE (0.5 µg/ml).
Sequence of human CD16aH receptor on transfected Jurkat cells (Jurkat-CD16aH) (human) (P08637 17-254): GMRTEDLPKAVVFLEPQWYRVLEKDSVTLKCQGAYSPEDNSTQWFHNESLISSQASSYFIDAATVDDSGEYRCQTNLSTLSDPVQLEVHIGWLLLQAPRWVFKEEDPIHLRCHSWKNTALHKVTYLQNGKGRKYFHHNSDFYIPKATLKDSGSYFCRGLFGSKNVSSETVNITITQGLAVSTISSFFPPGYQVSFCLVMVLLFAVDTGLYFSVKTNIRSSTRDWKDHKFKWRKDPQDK

Sequence of human CD32aH receptor on transfected HEK cells (HEK-CD32) (human) (P12318 34-317): as the sequence (P12318 34-317 H167R limits assumed) above, with R134H counted along it

In test [1], “A3A-184AY_CHO (K334N/P352S/A378V/V397M/N434Y), Fc variant produced in CHO cells (from UniProt P0DOX5 223-449)” gave an Inhibition of the lysis of the red blood cells medited by the anti-D AD1 (IC 25%, nM) of 13.5 nM and an Inhibition of the lysis of the red blood cells medited by the anti-D AD1 (IC 50%, nM) of 97 nM.

In [1], “Fc MST-HN fragment containing the mutations M252Y/S254T/T256E/H433K/N434F, produced in HEK-293 cells (from UniProt P01857 104-330)” displayed an Inhibition of the lysis of the red blood cells medited by the anti-D AD1 (IC 25%, nM) of 190 nM and an Inhibition of the lysis of the red blood cells medited by the anti-D AD1 (IC 50%, nM) of 441 nM.

In [1], “A3A-184EY_CHO (Y296W/K334N/P352S/A378V/V397M/N434Y), Fc variant produced in CHO cells (from UniProt P0DOX5 223-449)” displayed an Inhibition of the lysis of the red blood cells medited by the anti-D AD1 (IC 25%, nM) of 7.6 nM and an Inhibition of the lysis of the red blood cells medited by the anti-D AD1 (IC 50%, nM) of 56 nM.

Regarding “IVIg (intravenous immunoglobulin, polyvalent immunoglobulins from pools of human plasma donations) (antibody)”, the IC50 was determined as 671 nM in test [2]; 1310 nM in test [3]; 761 nM with CD32b; 1360 nM in test [9]; 880 nM in [10]; 1680 nM in [11]. The equilibrium dissociation constant (Kd) in test [4] was 438 nM; in test [6], 654 nM; in test [7], 339 nM; in test [8], 34.4 nM. In test [5], this substance showed an Inhibition of the secretion of IL-2 of the Jurkat cells transfected with CD64 (IC 25%, nM) of 1110 nM. For the same substance, the Inhibition of the secretion of IL-2 of the Jurkat cells transfected with CD64 (IC 50%, nM) in [5] was under 1950 nM. Besides, the Inhibition of the lysis of the red blood cells medited by the anti-D AD1 (IC 25%, nM) in test [1] was determined as 59.6 nM. Besides, in [1], the Inhibition of the lysis of the red blood cells medited by the anti-D AD1 (IC 50%, nM) was 351 nM.
